In article PMC4456287 (Structure (London, England : 1993), 2015):
Where a chain is given by its changes, count along the chain named. Names may count otherwise. “And” between values parts separate entries of the source, which are not always exact repeats. Equal values may be shown once. Values belong to the molecule of their own block, whether it stands above or below them.

What was measured:
Experiment in all cases: ITC
[1] = target: Alanine mutations of MRG15 L168 and W172 (human)
[2] = target: human MRG15 MRG domain (residues 155-323) (human, UniProt Q9UBU8-2 155-323)
Sequence of human MRG15 MRG domain (residues 155-323) (Q9UBU8 194-362): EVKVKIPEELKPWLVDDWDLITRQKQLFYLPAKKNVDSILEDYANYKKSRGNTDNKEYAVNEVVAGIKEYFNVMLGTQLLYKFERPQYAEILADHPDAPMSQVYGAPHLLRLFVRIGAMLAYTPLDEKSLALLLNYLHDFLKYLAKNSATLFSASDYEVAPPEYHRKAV

[3] = target: human MRG15 MRG L287A (human, UniProt Q9UBU8-2 155-323, alanine mutation of L287)
Sequence of human MRG15 MRG L287A (Q9UBU8 194-362 L326A): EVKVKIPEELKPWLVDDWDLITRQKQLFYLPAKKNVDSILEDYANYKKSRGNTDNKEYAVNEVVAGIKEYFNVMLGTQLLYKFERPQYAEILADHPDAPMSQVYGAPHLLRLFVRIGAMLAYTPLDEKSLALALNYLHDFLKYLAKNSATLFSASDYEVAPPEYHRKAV

[4] = target: human MRG15 MRG L168A (human, UniProt Q9UBU8-2 155-323, alanine mutation of L168)
Sequence of human MRG15 MRG L168A (Q9UBU8 194-362 L207A): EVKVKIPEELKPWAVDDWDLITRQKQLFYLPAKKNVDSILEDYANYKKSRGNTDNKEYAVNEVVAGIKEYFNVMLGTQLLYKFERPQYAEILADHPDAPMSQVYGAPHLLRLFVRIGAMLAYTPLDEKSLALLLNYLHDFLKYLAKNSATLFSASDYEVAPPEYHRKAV

[5] = target: human MRG15 MRG W172A (human, UniProt Q9UBU8-2 155-323, alanine mutation of W172)
Sequence of human MRG15 MRG W172A (Q9UBU8 194-362 W211A): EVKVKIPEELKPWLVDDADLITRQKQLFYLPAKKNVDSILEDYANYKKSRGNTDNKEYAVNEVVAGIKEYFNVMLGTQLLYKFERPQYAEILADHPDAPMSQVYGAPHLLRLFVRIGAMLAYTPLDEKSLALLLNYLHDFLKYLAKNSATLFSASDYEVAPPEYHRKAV

B1: human PALB2 MBD (residues 579-629) (domain or fragment, UniProt Q86YC2 579-629, looked up)
chain: AYLSLDDDAFTAPFHRDGMLSLKQLLSFLSITDFQLPDEDFGPLKLEKVKS
- Kd [2]: ~20 nM

B2: human MRGBP MRG-binding domain (residues 69-119) (domain or fragment, UniProt Q9NV56 69-119, looked up)
chain: GRQVPSKVIWDHLSTMYDMQALHESEILPFPNPERNFVLPEEIIQEVREGK
- fold effect on binding [3]: > 2 fold
- binding result [4]: binds
- binding result [5]: binds
- Kd [2]: ~60 nM

B4: human MRGBP MBD I112A (domain or fragment, UniProt Q9NV56 69-119, looked up)
chain: B2 chain with I44A
- fold decrease in binding affinity relative to wild-type [2]: ~13 fold

Results, then the molecule that gave them:

- fold reduction in binding affinity [1]: 7 fold and 8 fold
Molecule: human MRGBP MRG-binding domain (residues 69-119) (from UniProt Q9NV56 69-119) (domain or fragment)

- fold decrease in binding affinity relative to wild-type [2]: ~3 fold
B3: human MRGBP MBD M84A (domain or fragment, UniProt Q9NV56 69-119, looked up)
chain: B2 chain with M16A
